Columns and labels:
[1] = target: T1, Recombinant human/cynomolgus/rhesus macaque CD28 mouse IgG2a Fc fusion protein (Acro Biosystems) (human/cynomolgus/rhesus macaque, UniProt P10747 19-152); test: SPR, in-format anti-CD28 variants, huCD28
T1 construct: bought; also called huCD28

[2] = target: T2, CD28 on primary human T cells (human, UniProt P10747 19-220); test: cell-based or functional assay
[3] = target: T2, CD28 on primary human T cells; test: cell-based or functional assay; remark: listed apart in the source
[4] = target: T2, CD28 on primary human T cells; test: cell-based or functional assay; remark: listed apart in the source
Mouse CLDN18 A2.1 = target: T3, Mouse CLDN18 A2.1 (mouse, UniProt P56857 10-264); test: flow cytometry, HEK293-6E + mouse CLDN18, 4PL fit
T3 construct: on transfected HEK293-6E cells; also called Mouse CLDN18 2.1; mouse CLDN18.2 ortholog
T3 chain: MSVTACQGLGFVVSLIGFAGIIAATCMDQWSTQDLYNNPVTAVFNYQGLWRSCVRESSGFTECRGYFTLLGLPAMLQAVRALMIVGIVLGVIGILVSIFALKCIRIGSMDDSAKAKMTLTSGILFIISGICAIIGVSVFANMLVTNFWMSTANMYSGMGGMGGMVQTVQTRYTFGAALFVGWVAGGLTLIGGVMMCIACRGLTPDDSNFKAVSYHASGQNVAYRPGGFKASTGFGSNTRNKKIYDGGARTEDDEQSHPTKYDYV
Experimental: (§1) The purified rabbit chimeric and humanized constructs were assessed for binding to HEK293-6E cells transfected with human, cynomolgus monkey, or mouse CLDN18.2 orthologs (TABLE 12) by flow cytometry. […] Constructs were also assessed for binding to HEK293-6E cells transfected with human CLDN18.1.

Human CLDN18.2 [5] = target: T4, Human CLDN18.2 (human); test: flow cytometry, SNU 601 cells
T4 construct: on transfected HEK293-6E cells or native on SNU 601 cells

Human CLDN18.2 [6] = target: T4, Human CLDN18.2; test: flow cytometry, HEK293-6E + human CLDN18.2, 4PL fit
Experimental: as §1

Cynomolgus monkey CLDN18 = target: T5, Cynomolgus monkey CLDN18 (cynomolgus monkey); test: flow cytometry, HEK293-6E + cyno CLDN18, 4PL fit
T5 construct: on transfected HEK293-6E cells; also called Cyno CLDN18; cyno CLDN18.2 ortholog
T5 chain: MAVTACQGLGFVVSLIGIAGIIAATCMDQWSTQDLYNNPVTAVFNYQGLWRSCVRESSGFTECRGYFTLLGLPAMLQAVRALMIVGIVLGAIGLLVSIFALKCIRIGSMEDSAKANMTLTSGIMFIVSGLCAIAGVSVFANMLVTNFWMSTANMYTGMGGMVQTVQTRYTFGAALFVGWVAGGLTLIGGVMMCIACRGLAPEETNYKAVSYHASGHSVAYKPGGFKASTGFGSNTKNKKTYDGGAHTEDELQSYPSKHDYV
Experimental: as §1

B1: v38990 (trispecific antibody, human IgG1, kappa, L234A L235A)
heavy 1: not shown
heavy 2: EVQLVESGGGLVQPGGSLRLSCAASGVTFNYYGMSWIRQAPGKGLEWVASITSSGGRIYYPDSVKGRFTISRENTQKTLYLQMNSLRAEDTAVYYCTLDGRDGWVAYWGQGTLVTVSSGGGGSGGGGSGGGGSGGGGSNFMLTQPHSVSESPGKTVTISCKRNTGNIGSNYVNWYQQHEGSSPTTIIYRNDKRPDGVSDRFSGSIDRSSKSASLTISNLKTEDEADYFCQSYSSGFIFGGGTKLTVLAAEPKSSDKTHTCPPCPAPEAAGGPSVFLFPPKPKDTLMISRTPEVTCVVVSVSHEDPEVKFNWYVDGVEVHNAKTKPREEQYNSTYRVVSVLTVLHQDWLNGKEYKCKVSNKALPAPIEKTISKAKGQPREPQVYVLPPSRDELTKNQVSLLCLVKGFYPSDIAVEWESNGQPENNYLTWPPVLDSDGSFFLYSKLTVDKSRWQQGNVFSCSVMHEALHNHYTQKSLSLSPG
light: DIQMTQSPSSLSASVGDRVTITCRASESVEYYVTSLMQWYQQKPGKAPKLLIYAASNVDSGVPSRFSGSGSGTDFTLTISSLQPEDIATYYCQQSRKVPFTFGGGTKVEIKRTVAAPSVFIFPPSDEQLKSGTASVVCLLNNFYPREAKVQWKVDNALQSGNSQESVTEQDSKDSTYSLSSTLTLSKADYEKHKVYACEVTHQGLSSPVTKSFNRGEC
notes: also called v37642 format, CD28 VH Y1113S
For B1, the “Fold-change from WT” value [1] was 225 fold, the Kd [1] was 9510 nM and the “IFNg mean cytokine, T cells alone, 45 nM construct” value (“IFNg mean cytokine, T cells alone” for short) [2] was 0.9 pg/mL. The “IL-2 mean cytokine, T cells alone, 45 nM construct” value (from here on “IL-2 mean cytokine, T cells alone”) [2] was 1.8 pg/mL, the “IC50, TDCC on SNU 601-RFP, 1:5 E:T” value [3] was 0.145 nM and the “IC50, TDCC on SNU 601-RFP, 2:1 E:T” value [3] was 0.00358 nM. For the same binder, the “Maximum Mean Cytotoxicity (%), 1:5 E:T” value [3] was 95.4%, the “Maximum Mean Cytotoxicity (%), 2:1 E:T” value [3] was 97.8% and the “IFNg EC50, T cells + SNU 601” value [4] was 0.604 nM. The “IFNg maximum cytokine, T cells + SNU 601” value [4] was 3290 pg/mL, the “IL-2 EC50, T cells + SNU 601” value [4] was 1.56 nM and the “IL-2 maximum cytokine, T cells + SNU 601” value [4] was 5240 pg/mL.

B2: v38993 (trispecific antibody, human IgG1, kappa, L234A L235A)
heavy 1: not shown
heavy 2: EVQLVESGGGLVQPGGSLRLSCAASGVTFNYYGMSWIRQAPGKGLEWVASITSSGGRIYYPDSVKGRFTISRENTQKTLYLQMNSLRAEDTAVYYCTLDGRDGWVAYWGQGTLVTVSSGGGGSGGGGSGGGGSGGGGSNFMLTQPHSVSESPGKTVTISCKRNTGNIGSNYVNWYQQHEGSSPTTIIYRNDKRPDGVSDRFSGSIDRSSKSASLTISNLKTEDEADYFCQSYSSGFIFGGGTKLTVLAAEPKSSDKTHTCPPCPAPEAAGGPSVFLFPPKPKDTLMISRTPEVTCVVVSVSHEDPEVKFNWYVDGVEVHNAKTKPREEQYNSTYRVVSVLTVLHQDWLNGKEYKCKVSNKALPAPIEKTISKAKGQPREPQVYVLPPSRDELTKNQVSLLCLVKGFYPSDIAVEWESNGQPENNYLTWPPVLDSDGSFFLYSKLTVDKSRWQQGNVFSCSVMHEALHNHYTQKSLSLSPG
light: DIQMTQSPSSLSASVGDRVTITCRASESVEYYVTSLMQWYQQKPGKAPKLLIYAASNVDSGVPSRFSGSGSGTDFTLTISSLQPEDIATYYCQQSRKVPFTFGGGTKVEIKRTVAAPSVFIFPPSDEQLKSGTASVVCLLNNFYPREAKVQWKVDNALQSGNSQESVTEQDSKDSTYSLSSTLTLSKADYEKHKVYACEVTHQGLSSPVTKSFNRGEC
notes: also called v37642 format, CD28 VH L1112aN
B2 was tested, and the “Fold-change from WT” value [1] was 3.4 fold, the Kd [1] was 144 nM and the koff [1] was 0.00817 s⁻¹. The kon [1] was 59000 M⁻¹ s⁻¹, the “IFNg mean cytokine, T cells alone” value [2] was 475 pg/mL and the “IL-2 mean cytokine, T cells alone” value [2] was 1520 pg/mL. For the same binder, the “IFNg EC50, T cells + SNU 601” value [4] was 0.0793 nM, the “IFNg maximum cytokine, T cells + SNU 601” value [4] was 4450 pg/mL and the “IL-2 EC50, T cells + SNU 601” value [4] was 0.0287 nM. For the same binder, the “IL-2 maximum cytokine, T cells + SNU 601” value [4] was 8410 pg/mL.

B3: v38991 (trispecific antibody, human IgG1, kappa, L234A L235A)
heavy 1: not shown
heavy 2: EVQLVESGGGLVQPGGSLRLSCAASGVTFNYYGMSWIRQAPGKGLEWVASITSSGGRIYYPDSVKGRFTISRENTQKTLYLQMNSLRAEDTAVYYCTLDGRDGWVAYWGQGTLVTVSSGGGGSGGGGSGGGGSGGGGSNFMLTQPHSVSESPGKTVTISCKRNTGNIGSNYVNWYQQHEGSSPTTIIYRNDKRPDGVSDRFSGSIDRSSKSASLTISNLKTEDEADYFCQSYSSGFIFGGGTKLTVLAAEPKSSDKTHTCPPCPAPEAAGGPSVFLFPPKPKDTLMISRTPEVTCVVVSVSHEDPEVKFNWYVDGVEVHNAKTKPREEQYNSTYRVVSVLTVLHQDWLNGKEYKCKVSNKALPAPIEKTISKAKGQPREPQVYVLPPSRDELTKNQVSLLCLVKGFYPSDIAVEWESNGQPENNYLTWPPVLDSDGSFFLYSKLTVDKSRWQQGNVFSCSVMHEALHNHYTQKSLSLSPG
light: DIQMTQSPSSLSASVGDRVTITCRASESVEYYVTSLMQWYQQKPGKAPKLLIYAASNVDSGVPSRFSGSGSGTDFTLTISSLQPEDIATYYCQQSRKVPFTFGGGTKVEIKRTVAAPSVFIFPPSDEQLKSGTASVVCLLNNFYPREAKVQWKVDNALQSGNSQESVTEQDSKDSTYSLSSTLTLSKADYEKHKVYACEVTHQGLSSPVTKSFNRGEC
notes: also called v37642 format, CD28 VH N1111aA
In the case of B3, the “Fold-change from WT” value [1] is reported as 6.1 fold, the Kd [1] is reported as 257 nM and the koff [1] is reported as 0.0145 s⁻¹. For the same binder, the kon [1] was 62900 M⁻¹ s⁻¹, the “IFNg mean cytokine, T cells alone” value [2] was 15.4 pg/mL and the “IL-2 mean cytokine, T cells alone” value [2] was 26.5 pg/mL. For the same binder, the “IC50, TDCC on SNU 601-RFP, 1:5 E:T” value [3] was 0.0127 nM, the “IC50, TDCC on SNU 601-RFP, 2:1 E:T” value [3] was 0.000838 nM and the “Maximum Mean Cytotoxicity (%), 1:5 E:T” value [3] was 95.6%. The “Maximum Mean Cytotoxicity (%), 2:1 E:T” value [3] was 98.2%, the “IFNg EC50, T cells + SNU 601” value [4] was 0.0909 nM and the “IFNg maximum cytokine, T cells + SNU 601” value [4] was 6150 pg/mL. For the same binder, the “IL-2 EC50, T cells + SNU 601” value [4] was 0.0222 nM and the “IL-2 maximum cytokine, T cells + SNU 601” value [4] was 9620 pg/mL.

B4: v38992 (trispecific antibody, human IgG1, kappa, L234A L235A)
heavy 1: not shown
heavy 2: EVQLVESGGGLVQPGGSLRLSCAASGVTFNYYGMSWIRQAPGKGLEWVASITSSGGRIYYPDSVKGRFTISRENTQKTLYLQMNSLRAEDTAVYYCTLDGRDGWVAYWGQGTLVTVSSGGGGSGGGGSGGGGSGGGGSNFMLTQPHSVSESPGKTVTISCKRNTGNIGSNYVNWYQQHEGSSPTTIIYRNDKRPDGVSDRFSGSIDRSSKSASLTISNLKTEDEADYFCQSYSSGFIFGGGTKLTVLAAEPKSSDKTHTCPPCPAPEAAGGPSVFLFPPKPKDTLMISRTPEVTCVVVSVSHEDPEVKFNWYVDGVEVHNAKTKPREEQYNSTYRVVSVLTVLHQDWLNGKEYKCKVSNKALPAPIEKTISKAKGQPREPQVYVLPPSRDELTKNQVSLLCLVKGFYPSDIAVEWESNGQPENNYLTWPPVLDSDGSFFLYSKLTVDKSRWQQGNVFSCSVMHEALHNHYTQKSLSLSPG
light: DIQMTQSPSSLSASVGDRVTITCRASESVEYYVTSLMQWYQQKPGKAPKLLIYAASNVDSGVPSRFSGSGSGTDFTLTISSLQPEDIATYYCQQSRKVPFTFGGGTKVEIKRTVAAPSVFIFPPSDEQLKSGTASVVCLLNNFYPREAKVQWKVDNALQSGNSQESVTEQDSKDSTYSLSSTLTLSKADYEKHKVYACEVTHQGLSSPVTKSFNRGEC
notes: also called v37642 format, CD28 VH G1064S
For B4, the “Fold-change from WT” value [1] was 3.1 fold, the Kd [1] was 130 nM and the koff [1] was 0.00738 s⁻¹. The kon [1] was 59800 M⁻¹ s⁻¹, the “IFNg mean cytokine, T cells alone” value [2] was 559 pg/mL and the “IL-2 mean cytokine, T cells alone” value [2] was 1690 pg/mL. The “IFNg EC50, T cells + SNU 601” value [4] was 0.023 nM, the “IFNg maximum cytokine, T cells + SNU 601” value [4] was 3990 pg/mL and the “IL-2 EC50, T cells + SNU 601” value [4] was 0.00916 nM. The “IL-2 maximum cytokine, T cells + SNU 601” value [4] was 5560 pg/mL.

B5: v37411 (antibody, human IgG1, V domains shown)
VH: QVQLVESGGGLVQPGGSLRLSCSVSGIDLSSNPMIWVRQAPGKGLQYIGIIDTDGSTYYADWAKGRFTISKDSTTVYLQINSPRAEDTAVYYCARRLHGSSNGYYDDLWGQGTLVTVSS
VL: DGQMTQSPSSVSASVGDRVTITCQASQSIYSYLSWYQQKPGQRPKLLIYKASTLASGVPSRFSGSGSGTDFTLTISSVQPEDFATYYCQQGYTVTNVDKNTFGGGTKVEIK
notes: human IgG1-based monoclonal antibody; also called H5-L4; anti-CLDN18.2 mAb
B5 showed a Bmax (Mouse CLDN18 A2.1) of 1790, an EC50 (Mouse CLDN18 A2.1) of 1.03 nM and a Bmax (Human CLDN18.2 [5]) of 11700 MFI. It also gave an EC50 (Human CLDN18.2 [5]) of 8.9 nM, a Bmax (Human CLDN18.2 [6]) of 2170 and an EC50 (Human CLDN18.2 [6]) of 1.05 nM. For the same binder, the Bmax (Cynomolgus monkey CLDN18) was 1730 and the EC50 (Cynomolgus monkey CLDN18) was 0.37 nM.
